Patent publication US20260092121A1 (TALEM THERAPEUTICS, published 2026)

B1: anti-TrkB clone 2E08 (antibody, V domains shown)
VH: QVQLVQSGAEVKKPGESLKISCTGSGYRFSHYWIGWVRQMPGKGLEWMGMIYPDDSDTRYSPSFQGQVTISADKSINTAYLQWTSLRASDSAIYYCATGVISGTDYWGQGTLVTVSS
VL: SYVLTQPPSVSVSPGQTARITCSGDKLGDKYVSWYQLKPGQSPVVVIYQDNKRPSGIPERFSASNSENTGTLTISGTQAMDEADYYCQTWDSGTGVFGTGTKLTVL
notes: full-length IgG
B2: anti-TrkB clone 3B06 (antibody, V domains shown)
VH: EVQLVQSGAEVKEPGASVKVSCKASGYTFTNYAMHWVRQAPGQRLEWMGWINPNTGGTNYAQKFQGRVTMTRDTSISTAYMELSSLRSDDTAVYYCARGGGGLVFWGQGTLVTVSS
VL: DIVMTQTPLSLPVTLGQPASISCRSSQSLVDRDGNTYLNWFRQRPGQSPRRLIYKVSNRDSGVPGTFSGSGSGTDFTLKISRVEADDVGVYFCMQATHWPPTFGQGTKVEI
notes: full-length IgG
B3: anti-TrkB clone 3D03 (antibody, V domains shown)
VH: EVQLVQSGAEVKKPGESLKISCKGSGYSFTSYWIGWVRQMPGKGLEWMGIIYPGDSDTRYSPSFQGQVTISADKSISTAYLQWSSLKASDTAMYYCARLGGSLPIDYWGQGTLVTVSS
VL: QSVLTQPPSVSVSPGQTASITCSGDKLGDKYVSWYQQKPGQSPVLVIYQDSKRPSGIPERFSGSNSGSTATLTISGTQALDEADYYCQAWDNNIGVFGGGTKLTVL
notes: full-length IgG

Target: T1, human TrkB-ECD-GST (human, UniProt Q16620 32-430)
T1 construct: in-house fusion, HEK293; also called hTrkB-ECD-GST; human TrkB-GST; not shown: glutathione S-transferase (GST) fusion part
Test: ELISA

Binding result, no binding (tested: up to 10 µg/mL):
B1
B2
B3

Target: T2, mouse TrkB-ECD-GST (mouse, UniProt P15209 32-429)
T2 construct: extracellular domain; in-house fusion, HEK293; also called mTrkB-ECD-GST; mTrkB (ELISA); not shown: glutathione S-transferase (GST) fusion part
Test: ELISA

Binding result, no binding (tested: up to 10 µg/mL):
B1
B2
B3
